Reference: PMC4837482, “The complex binding mode of the peptide hormone H2 relaxin to its receptor RXFP1” (Nature Communications, 2016)
Where a chain is given by its changes, count along the chain named.

Assays:
RXFP1 G41D42-AA = target: T1, RXFP1 G41D42-AA (Homo sapiens, UniProt Q9HBX9, D64A/G63A); assay: Eu-H2 relaxin saturation binding assay, transfected HEK293T cells; conditions: construct G41D42-AA, maximum H2 concentration 15 nM
T1 construct: transiently transfected human embryonic kidney (HEK) 293T cells expressing full-length RXFP1 and mutants; expressed in transfected cells; host or cells: HEK293T
T1 sequence (Q9HBX9 23-757 G63A/D64A limits assumed): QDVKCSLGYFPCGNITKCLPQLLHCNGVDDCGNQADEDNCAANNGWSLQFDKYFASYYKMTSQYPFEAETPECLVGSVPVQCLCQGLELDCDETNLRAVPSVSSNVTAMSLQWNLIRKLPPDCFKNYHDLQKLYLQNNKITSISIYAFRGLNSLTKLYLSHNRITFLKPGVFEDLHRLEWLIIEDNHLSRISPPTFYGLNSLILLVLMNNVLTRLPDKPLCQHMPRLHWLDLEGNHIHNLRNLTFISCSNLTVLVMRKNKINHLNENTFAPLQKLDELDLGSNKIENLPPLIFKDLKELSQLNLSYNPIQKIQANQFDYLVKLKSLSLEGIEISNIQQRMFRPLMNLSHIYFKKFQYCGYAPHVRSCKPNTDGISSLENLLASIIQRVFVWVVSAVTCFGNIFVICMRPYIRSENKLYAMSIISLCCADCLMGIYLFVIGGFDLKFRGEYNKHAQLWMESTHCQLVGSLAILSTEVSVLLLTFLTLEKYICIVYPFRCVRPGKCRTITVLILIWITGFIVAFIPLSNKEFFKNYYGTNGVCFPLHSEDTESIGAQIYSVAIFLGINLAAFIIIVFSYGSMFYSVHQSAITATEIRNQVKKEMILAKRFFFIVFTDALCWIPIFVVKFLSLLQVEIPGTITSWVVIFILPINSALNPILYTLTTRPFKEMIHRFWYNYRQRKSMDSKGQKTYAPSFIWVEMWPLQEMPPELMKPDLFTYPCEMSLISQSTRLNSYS

RXFP1 F54A/Y58A = target: T2, RXFP1 F54A/Y58A (Homo sapiens, UniProt Q9HBX9, F76A/Y80A); assay: as above; conditions: F54A/Y58A RXFP1 versus wild-type RXFP1
T2 construct: cells expressing full-length RXFP1 and mutants; expressed in transfected cells; host or cells: HEK293T
T2 sequence (Q9HBX9 23-757 F76A/Y80A limits assumed): T1 sequence (Q9HBX9 23-757 G63A/D64A limits assumed) with A41G, A42D, F54A, Y58A

[1] = target: T3, RXFP1 G41A/D42A, full length (human); assay: cell-based or functional assay
T3 chain: T1 sequence (Q9HBX9 23-757 G63A/D64A limits assumed)

[2] = target: T4, RXFP1 G45A/W46A, full length (human); assay: cell-based or functional assay
T4 chain: T1 sequence (Q9HBX9 23-757 G63A/D64A limits assumed) with A41G, A42D, G45A, W46A

## H2 relaxin: two-chain 6-kDa peptide hormone structurally related to insulin; recombinant human gene-2 H2 relaxin provided by Corthera
RXFP1 G41D42-AA
  Kd: > 20 nM
RXFP1 F54A/Y58A
  loss in H2 relaxin binding: tenfold

B1: H2 relaxin (ligand, human)
chain 1: QLYSALANKCCHVGCTKRSLARFC
chain 2: DSWMEEVIKLCGRELVRAQIAICGMSTWS
[1]
  H2 relaxin-induced cAMP response (pCRE β-galactosidase reporter, HEK293T), pEC50: 7.26 pEC50
[2]
  H2 relaxin-induced cAMP response (pCRE β-galactosidase reporter, HEK293T), pEC50: < 6 pEC50
